T1: human UBA7 (human, UniProt P41226 1-1012)
T1 sequence: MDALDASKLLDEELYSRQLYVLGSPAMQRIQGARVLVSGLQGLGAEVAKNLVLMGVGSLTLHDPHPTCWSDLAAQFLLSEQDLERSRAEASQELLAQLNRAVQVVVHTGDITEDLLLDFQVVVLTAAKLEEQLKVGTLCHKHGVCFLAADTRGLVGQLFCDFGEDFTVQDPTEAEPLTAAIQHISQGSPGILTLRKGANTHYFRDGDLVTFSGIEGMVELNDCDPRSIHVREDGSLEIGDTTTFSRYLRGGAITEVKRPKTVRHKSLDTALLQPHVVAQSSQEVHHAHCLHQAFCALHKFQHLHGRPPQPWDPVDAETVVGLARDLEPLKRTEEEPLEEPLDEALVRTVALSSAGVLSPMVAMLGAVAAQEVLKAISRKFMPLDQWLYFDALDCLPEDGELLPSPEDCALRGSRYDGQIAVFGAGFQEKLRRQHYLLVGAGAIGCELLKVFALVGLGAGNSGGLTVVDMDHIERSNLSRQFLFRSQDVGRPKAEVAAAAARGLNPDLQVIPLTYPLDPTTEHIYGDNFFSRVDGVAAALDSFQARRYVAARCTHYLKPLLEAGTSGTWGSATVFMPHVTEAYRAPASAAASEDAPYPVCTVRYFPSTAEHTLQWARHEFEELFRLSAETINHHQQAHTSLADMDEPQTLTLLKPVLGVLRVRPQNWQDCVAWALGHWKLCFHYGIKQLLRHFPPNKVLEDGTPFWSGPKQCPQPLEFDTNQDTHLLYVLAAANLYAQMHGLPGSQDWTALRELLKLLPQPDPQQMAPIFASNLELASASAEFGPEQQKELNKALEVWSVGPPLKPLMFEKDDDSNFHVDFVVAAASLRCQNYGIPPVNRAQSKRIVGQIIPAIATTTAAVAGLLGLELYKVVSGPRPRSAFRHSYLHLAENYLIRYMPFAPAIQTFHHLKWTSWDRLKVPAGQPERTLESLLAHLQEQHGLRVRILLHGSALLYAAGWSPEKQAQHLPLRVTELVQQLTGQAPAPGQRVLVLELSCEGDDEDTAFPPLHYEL

T2: mouse UBA7 (mouse, UniProt Q9DBK7 1-977)
T2 sequence (looked up): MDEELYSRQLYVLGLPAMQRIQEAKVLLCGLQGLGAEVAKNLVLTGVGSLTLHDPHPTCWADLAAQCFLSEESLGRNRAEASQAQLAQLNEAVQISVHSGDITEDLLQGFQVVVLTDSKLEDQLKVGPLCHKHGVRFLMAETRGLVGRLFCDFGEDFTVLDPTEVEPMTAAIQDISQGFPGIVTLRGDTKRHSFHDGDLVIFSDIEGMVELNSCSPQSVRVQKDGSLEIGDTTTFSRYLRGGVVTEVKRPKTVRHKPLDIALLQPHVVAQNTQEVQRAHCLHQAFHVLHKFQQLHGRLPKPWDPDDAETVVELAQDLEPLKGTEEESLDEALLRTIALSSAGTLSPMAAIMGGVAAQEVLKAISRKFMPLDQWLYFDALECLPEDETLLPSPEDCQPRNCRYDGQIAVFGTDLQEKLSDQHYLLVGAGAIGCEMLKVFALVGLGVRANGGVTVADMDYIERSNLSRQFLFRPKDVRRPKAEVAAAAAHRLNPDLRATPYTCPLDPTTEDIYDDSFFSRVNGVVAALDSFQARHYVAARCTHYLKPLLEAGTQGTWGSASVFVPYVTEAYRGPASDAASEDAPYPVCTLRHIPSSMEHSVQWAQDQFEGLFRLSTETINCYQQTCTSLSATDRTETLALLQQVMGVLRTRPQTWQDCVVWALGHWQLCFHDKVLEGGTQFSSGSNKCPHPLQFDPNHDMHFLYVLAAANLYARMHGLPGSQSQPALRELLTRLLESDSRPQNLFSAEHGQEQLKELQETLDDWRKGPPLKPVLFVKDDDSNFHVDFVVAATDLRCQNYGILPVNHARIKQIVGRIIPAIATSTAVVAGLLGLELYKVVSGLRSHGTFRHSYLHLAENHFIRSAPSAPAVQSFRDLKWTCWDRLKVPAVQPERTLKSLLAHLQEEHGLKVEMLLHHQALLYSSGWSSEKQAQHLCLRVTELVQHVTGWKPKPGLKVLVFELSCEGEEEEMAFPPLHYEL


How the values were obtained:
human UBA7 = biological target: T1, human UBA7; assay: disulfide complex formation on non-reducing SDS-PAGE
mouse UBA7 = biological target: T2, mouse UBA7; assay: as above

| binding result (human UBA7) | binding result (mouse UBA7) | Binder |
| --- | --- | --- |
| binds |  | human UBE2L6 (enzyme) not shown |
|  | binds | mouse UBE2L6 (enzyme, UniProt Q9QZU9 1-153, looked up) MMASKRVAKELESLSKELPPYLRQLSSDDANVLVWHMLLLPDQLPYGLKAFQVRIDFPREYPFKPPTLRFTTKIYHPNVREDGLVCLPLISNENWKPYTKPYQVLEALNVLVSKPNLEEPVRLELADLLTQNPEMFRKKAEEFTLKFGVDRPS |

From article doi:10.1101/2024.11.07.622398 (bioRxiv, 2024)
